Measured values: patent US6156557A, “Alkaline protease from streptomyces sp. and method for preparing the same” (Toto Ltd., priority 1998, dated 2000)

Experiments:
alkaline protease = assay type: biochemical, Streptomyces sp. TOTO-9305; conditions: for Residual Activity: pH 9
casein [1] = conditions: known alkaline proteases, values from References 1-3; cited from earlier work
keratin = conditions: known alkaline proteases, values from Reference 3; cited from earlier work
casein [2] = conditions: known alkaline proteases, values from References 1-3; cited from earlier work; remark: listed apart in the source
[3] = known alkaline proteases, values from References 1-3; cited from earlier work
[4] = known alkaline proteases, values from References 1-3; cited from earlier work; remark: listed apart in the source

Molecule | inhibition of the activity of the enzyme (in words) (alkaline protease) | Residual Activity (alkaline protease) | Specific Activity: Casein (casein [1]) | Specific Activity: Keratin (keratin) [U/mg protein] | Optimum pH: Casein (casein [2]) | Isoelectric Point [3] | Optimum Temp. [4] [°C]
O=C(O)CN(CCN(CC(=O)O)CC(=O)O)CC(=O)O [EDTA, ethylene-diaminetetraacetic acid] | not inhibited | 91 | – | – | – | – | –
O=C(O)CI [Iodoacetic Acid, iodoacetic acid] | not inhibited | 96 | – | – | – | – | –
O=C(O)c1cc[c]([Hg][Cl])cc1 [PCMB, p-chloromercuribenzoate] | not inhibited | 91 | – | – | – | – | –
O=S(=O)(F)Cc1ccccc1 [PMSF, phenyl methanesulfonyl fluoride] | inhibited | 0 | – | – | – | – | –
CCCCCCCCCCCCOS(=O)(=O)[O-].[Na+] [SDS, sodium dodecylsulfate] | slightly inhibited | 74 | – | – | – | – | –
Subtilisin BPN^1: conventional alkaline protease, subtilisin BPN (protein, UniProt P00782 108-382, looked up) Subtilisin BPN': AQSVPYGVSQIKAPALHSQGYTGSNVKVAVIDSGIDSSHPDLKVAGGASMVPSETNPFQDNNSHGTHVAGTVAALNNSIGVLGVAPSASLYAVKVLGADGSGQYSWIINGIEWAIANNMDVINMSLGGPSGSAALKAAVDKAVASGVVVVAAAGNEGTSGSSSTVGYPGKYPSVIAVGAVDSSNQRASFSSVGPELDVMAPGVSIQSTLPGNKYGAYNGTSMASPHVAGAAALILSKHPNWTNTQVRSSLENTTTKLGDSFYYGKGLINVQAAAQ | – | – | 2,200 U/mg protein | 436 | 10.5 | 7.8 | –
Subtilisin B. subtilis: conventional alkaline protease, subtilisin of B. subtilis (protein, UniProt P04189 107-381, looked up) Subtilisin E: AQSVPYGISQIKAPALHSQGYTGSNVKVAVIDSGIDSSHPDLNVRGGASFVPSETNPYQDGSSHGTHVAGTIAALNNSIGVLGVAPSASLYAVKVLDSTGSGQYSWIINGIEWAISNNMDVINMSLGGPTGSTALKTVVDKAVSSGIVVAAAAGNEGSSGSTSTVGYPAKYPSTIAVGAVNSSNQRASFSSAGSELDVMAPGVSIQSTLPGGTYGAYNGTSMATPHVAGAAALILSKHPTWTNAQVRDRLESTATYLGNSFYYGKGLINVQAAAQ | – | – | 2,900 U/mg protein | – | 10.5 | 7.5-8.0 | 55
Subtilisin Carlsberg: conventional alkaline protease, subtilisin Carlsberg (protein, UniProt P00780 106-379, looked up) Subtilisin Carlsberg: AQTVPYGIPLIKADKVQAQGFKGANVKVAVLDTGIQASHPDLNVVGGASFVAGEAYNTDGNGHGTHVAGTVAALDNTTGVLGVAPSVSLYAVKVLNSSGSGSYSGIVSGIEWATTNGMDVINMSLGGASGSTAMKQAVDNAYAKGVVVVAAAGNSGSSGNTNTIGYPAKYDSVIAVGAVDSNSNRASFSSVGAELEVMAPGAGVYSTYPTNTYATLNGTSMASPHVAGAAALILSKHPNLSASQVRNRLSSTATYLGSSFYYGKGLINVEAAAQ | – | – | 6,500 U/mg protein | 888 | 10.5 | 9.8 | 50
